Assay: soluble on expression in E. coli; label from the status in PepcDB or PDB records

Sequence | soluble on expression in E. coli
RSDSIMILSINPKTKKTEIVSIPRDTRAEIVGRGTTEKIAHAYAYGGPNMAVKSLEKLMNVPIDHYATIDMDGLHNMIDSIGGVDVVSNDTFTVDGVRFTKGQQTHVNGDQALKFIRSRKEEGAGGDFGRQQRQQIVLEAMANKIAS | not soluble
MSIVNILSVNVLNNPAKFSDPYKFEITFECLEPLKSDLEWKLTYVGSATSQSYDQILDTLLVGPIPIGINKFVFEADPPNIDLLPQLSDVLGVTVILLSCAYEDNEFVRVGYYVNNEMEGLNLQEMDDAEIKKVKVDISKVWRSILAEKPRVTRFNIQWDN | soluble
MQNEQLLQEVGLNAYEAAAYLSLLKLGVSEASDIYRDSEVPYGKIYSVLESLAGKGFVEVQASRPKKFRAVDPELALDTFFERRKAEVEREMAFLKSSVEEAKSVLKAVPTQKRKDEFFWTTAITESEIKKFAVSIYSEVKKSVCVLPPVFGISIVFYLLPEITKAIDRGVRIKLMISPRFMALASVLSHQEGEILEKLKKGLDIRLVQNSNSCFGIVDDSIVVLFQPHPTDRDRVLSVVKVRDSGLAKNLKEEFDLLWNAGEKLDLQEELEDKQNPGKN | not soluble
MSQRTSEENRYEQLHRFAAKIHSTMQIDDVLEEIICTLQNVYPAFTYHLLLSHDNHVCGNLPIKTLALDESEGQPAALRAFLTGQVQCEETAAPPRSVLYAPIKGVQAVYGVIQIIAPYAAPFPKREINFISLLAGTAGRALENAKLYEQSRRLEHHHHHH | soluble
MSLEKNKEYIFDIISQGYEGEGIAKIDNKYPIFIEGALKGEKVKVRIVKVNKNFAYGKLMEVLEASEERVNPPCAIYKRCGGCKLQHASYKAQLDFKWDRVKDCVSKIGKLDPSIVKYPLGMEEPWRYRNKVQLPIGLINGEVKIGFFAPRSHDIIDMESCLIQDEIGDKVVKLTREWIEKFNIRPYNVDGEYDEKGIVRHIMIRRGFTTNEVMVVLVTNGEKLPHKEEFVDLMVKNIPGIKSVIQNINSKKTNVILGLESKTLWGEDTISDYIGDFRFNISPLSFFQVNPTQTEVLYGKALEYANLTGNEEVFDAYCGTGTITLFLSQKAKKVYGVEIIPQAIDNAWINAKENKVENVEFFVGESEVVIPDLINKGVKADVVVVDPPRKGCDKKLLDAITNINAKKIVYVSCDPSTLGRDLAILEENGYKTLEVQPVDMFPNTSHVENVAKLIKKEGHHHHHH | soluble
MAHHHHHHMPIKNVQEFLPNVRPDAFPVVVAVQAQASIPVGINLAELSCATRNVEYMPNNRIPSATMRLHEPTAVVMMHNSGALSIIGAASVSEARQAAELAARIIRKALNLNFSSLKFRVRSIAARFNVCSPIRLDKLAAYQLDPAMSIGVAKLQVSYEPERFNGCVLRLVGKSSRGDNQWSVSCSVFVTGKVQLMGARSMDELRFAFNAFVPIIAKNLDERKTA | not soluble
MVIEVPQTERVNDVDVFLSTQDGQIQRPKGPNCRHPVRQKCTNCLPVDPFDEEYLKEKDIKHMSFHAHVRKLLGSQGKGTTLKKPLENFRCSLKPNCDAHKPFPKGICTKCKPQVVTLNRQKFRHVDNIQIENQELVNQFLDYWRLSGHQRVGFLIGQYQPHLEVPLGIKATVAAIYEPPQHCREDGIEFLEDKNQKTIDNLLEMLGLQRVGWIFTDCWTANSAEGTVHYTRHKDSFFLSAEECITAAMLQNQHPNITEYSMDRHYGSKFVTVVASGDESMHVNFHGYQVSNQCAAMVEADILCPTLYTPELAYVRETPLSEEHYITDVQFSMKNEYGAEVMKNGRPLPVEYLLVDVPAGMPKEPHYTFHVGTSNKSKSAKFNVENRQAIGQLQGGANLIQYSSEFSTNQFLEQATNFHFLLYLVTNDQVQISDEWMKRLCDAVKAQDRGTAMEWAQECEDWHQLMALAHANGGSGNDDIPVIPNGDPFSGSSSGGSRGAVWSCGHCTFQNEAGRQDCSMCGLPAAD | not soluble
MGSDKIHHHHHHMTESEKQKLGKTLWAIADQLRGAMNADDFRDYMLAFLFLRYLSDNYEAAAQKELGTDYPDLPSDVLRQTGVNTPLQAWYEENLDDVSEFEKQMRRKVHYVIEPQYLWGNIAEMARTQDDELLHTLQKGFKYIEEESFASTFRGLFSEINLASDKLGKTYTERNARLCKIIAEIAKGLGQFSTDSDTLGDAYEYLIGQFAAGSGKKAGEFYTPQRISDILSAIVTLDSQEPATGKRSHLDSVFDFACGSGSLLLNVRRLMGPHGIGKIYGQEKNITTYNLARMNMLLHGVKDSEFEIFHGDTLLNEWDMLRETNPAKMPKFDAVVANPPFSYRWEPSEALGEDVRFKNYGLAPKSAADFAFLLHGFHFLKQDGVMAIILPHGVLFRGGAEARIRTKLLKDGHIDTVIGLPANLFFSTGIPVCILVLKKCKKPDDVLFINAAEHFERGKRQNQLLPEHIDKIIDTYRYRKEEPRYSRRVSMEEIEKNDFNLNISRYVSTAITEEEVDLNAVIGQLKAIEQEIYQAKSKHNEFLKELGLPLLP | not soluble
VSVGTHPTFENSPSGTVLTSPPDGSAVDRATDAARRVVDALLRTDRGNANLERVAEELNSIAGHLEEHAPAVAERLIDMWNGEGVTRHDPVTGPENALAPPVVLEGLSDGSVRGTVTLTIPYQGPPGHVHGGVSALLLDHVLGVANAWGGKAGMTAQLSTRYHRPTPLFEPLTLTGKLMSVDGRKITTAGDIRTADGQVCVSVEGLFVDKTVPRPR | soluble
MYRVLLSGAAGSGKGTIARMLVREFEPLGFNYFAAGDFIRDHIARGTEFGVRAQSFLNKGEHVPDSILNGAILAEMLKAGPRVVLDGYPRNMSQLKMVEEQAPLNLIVELKVPRKVLIDRLSKQLVHPASGRAYNLEVNPPKEEGKDDITGEPLFKRSTDQLEVARRRLEVYDKTENKVLDYYKKQNKCITMSGESSKAVFESVAEVMRRDLLTTTPRTAYA | not soluble
DIQMTQSPASLSASVGETVTITCRASENIYSYLAWYQQKQGKSPQLLVYNAKTLAEGVPSRFSGSGSGTQFSLKINSLQPEDFGSYYCQHHYGTPFTFGSGTKLEIKRHHHHHH | soluble
MSSAAKNFYQVVKSAPKGRFKGIKRDYTVEDVLKLRGSIDIDYTLATRGANKLWQLLHTEPFVPALGAQTGNQAVQMVRAGLKAIYLSGWQVAADANSAGDMYPDQSLYPANSGPELAKRINRSLRRADQIEACEAEDYLAQRDWYAPIVADAEAGFGGALNCFELMKAYIEAGAAGVHYEDQLGSEKKCGHMGGKVLIPTAQHIRHLNASRLAADVCGVPTIIVARTDAESSRLLTSDIDPRDHPYIDYEAGRTIEGFYRLKDSTAIQYCIDRAIQYAPYTDLIWMETSHPTIADAREFAEGVHKQYPDKMFAYNCSPSFNWKKHLSPSQMEKFQKELGAMGFKYQFITLAGYHANSYSMFDLARNYKEKGMLAYSGLQEGEFAAEKHGYTAVKHQREVGTGYFDAVSRAVTGGLSSTTALSGSTEEAQFQTAVASQDEEILSLTAQNVAGDEKILTPDALRFLHDLNTEFNPRRLRLLSKRNQVQADINNSLWFPDFNKETEVLRSDQGWKGAEIPRDLQDRRVEITGPTDRKMVINAMNSGANVFMADFEDSNSPTWRNQLEGQINLYDAVRNNISYTHPTTKKEYTLNEKHAVLKVRPRGWHLPEKHVLIHNQPTSGSLFDFGLFVFHNAKALIAQGSGPYFYLPKLQSAEEAQLWADVFKYTEDKLGLARGTIKCTVLIEHLLASFQLHEIIHALKDNIVGLNCGRWDYIFSYIKTFQNHRKFLLPDRFQIGMTAPFMRNYSLEVIKACHLRGIHAMGGMAAQIPIKHDQVANDKAFALVRADKEREATDGHDGTWVAHPGLVPLAKRVFDQMMPKPNQISKNLTRANCTKEDLTVIPEGTRTEAGFRHNISVTLGYLDSWLRGTGCVPLYNLMEDAATAEISRAQLWQWLHHDAKLEDGRTIDAGLVKQTIAAETERRLIRAGSVVNRIPEAADLLEKFVTEEKMSDFLTTDAYDRLVSEGY | not soluble
MAKVRETYVCSACGANTPQWRGQCPTCKAWNTLDAVTVARETRSGVRRQGAPDSVRPRPLRDVSDEGGSPFGTGLEALDRVLGSGLVPGAAILFGGEPGIGKSTLLLQVAGAVAASGRDVLYLSGEESLTQLKGRAERLGVLHERLLAVATSRVEDVFSVLESGTPPALLVLDSVQTLTSDLAEGLPGNVSQVRAVATEVVDRCKRAGTAVLLVGHVTKDGNLAGPRLLEHMVDTVVSLEGDRRQMFRLLRVLKNRFGPNQELLVFQMAQRGLEVVEDPSTFFLGARDPALSGTAVVMAVDGQRPFAVEVQALVTRSYLAIPRRTGLGFDVNRLHLLLAVLEKRLRLNFGQVDIYAKIGGGMRLQDPGMDLALVAAVLSSFYDVALPERAVLWGEVDLNGQVRPVAAHDIRLGQAARLGYGPVLHPGEGRGAVPTVVELQARLFGKSGAPRHNPSELEHHHHHH | not soluble
MGSDKIHHHHHHMTTSTGKINLLGLTQPEMEQFFDSIGEKRFRAGQVMKWIHHFGVSDFAAMTNVGKVLREKLEAVAEIRPPEVVSEDISADGTRKWVIRVASGSCVETVYIPTDDRGTLCVSSQAGCALDCSFCSTGKQGFNSNLTAAEVIGQVWLANKSFGTVPAKVDRAITNVVMMGMGEPLLNFDNVIAAMKIMMDDLGYGISKRRVTLSTSGVVPMIDELAKHIDVSLALSLHAPNDELRNKLVPINKKYPLKVLLESCMGYMSTLGGKRVLTVEYTLLKDVNDQPEHAAQMIELLRDVPCKINLIPFNPFPHSGYERPSNNAIRRFQDLLHHGGFNVTTRTTRGDDIDAACGQLVGQVNDRTRRSERYIAVRQLSADVELPDSAASH | not soluble
MAHHHHHHMEENNQVEKNKGTNQLCFVKMLVNNLVAGSVIGKNGSIITSIENKTGCSLKLSPTNSYFPNTQERVLVLCGKQEQINNALLIILDKIRQITVQSFQDKQNMNTVPKYTCRIVIPKSAASAIIGKGGQQIKQLQDSTGAKIQISSREDGLNERIISIIGPFESISDTAIKVTNSIQNDPNLKDLLNVIYNKDTNMNGRSSLSQNFVNQVPLNGYVVPQQYGVFQHEQYMDVNMMNSLMRHSRDLFNLPCEISIQIPDEFIGSVIGKNGSRLTNIMNSTGAQIRISRKGELIPGTADRKVRIMGTVAAVHGAHVLLLQRLESVYMQLRTMQVKCDA | soluble
MISAIILSGGKAERMGGEKSFRKSGNKYLIENIADMLIEMEIPFVTVFKNPRFMEKPEEEIEKQLYYYKKYHQTITWDFVPGMGPLIGMLSGMLNTKSQWVFLVPCDMPFITEESIINLLSFIKEAELNGYDCIVPKHKNGFIEPLFSLYHISSVNVLGMVVEEMLEQNRSFPIRRLIDELNPLYVDVDKIDKTCDIFINLNTLKELENACFDRLEHHHHHH | soluble
MRVLVTGGAGFIGSHIVEDLLARGLEVAVLDNLATGKRENVPKGVPFFRVDLRDKEGVERAFREFRPTHVSHQAAQASVKVSVEDPVLDFEVNLLGGLNLLEACRQYGVEKLVFASTGGAIYGEVPEGERAEETWPPRPKSPYAASKAAFEHYLSVYGQSYGLKWVSLRYGNVYGPRQDPHGEAGVVAIFAERVLKGLPVTLYARKTPGDEGCVRDYVYVGDVAEAHALALFSLEGIYNVGTGEGHTTREVLMAVAEAAGKAPEVQPAPPRPGDLERSVLSPLKLMAHGWRPKVGFQEGIRLTVDHFRGAV | soluble
KPMKILLANPRGFCAGVDRAISIVERALELYQPPIYVRHEVVHNRFVVEGLKQRGARFVEELNEVPDDNIVIFSAHGVSQAVRQEAKERSLTVFDATCPLVTKVHMEVARASRKHMEVVLIGHAGHPEVEGTMGQYASDTGGMYLVEKPEDVVSLQAKVKDPSNLHYVSQTTLSVDETADVIDELRRVFPKIQGPRKDDICYATQNRQDAVRILAEQVDVMVVVGSKNSSNSTRLKELAEKLGTPGYLIDCPQDIDPEWFVDAQLIGVTAGASAPEELVNQILDRIKELGAT | not soluble
